In the supplement of paper PMC9112550, “Optimization of the antimicrobial peptide Bac7 by deep mutational scanning” (BMC Biology, 2022):

Test system: Escherichia coli TOP10
Experiment: shrunken log2 fold change of peptide-encoding DNA abundance (4.5 h post-induction vs induction); higher = less antimicrobial activity (less host growth inhibition)
Conditions: time post-induction: 4.5 h; library: site-saturation at positions 5, 18, 19, 20
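Note: peptides expressed intracellularly from a pBAD plasmid library in pooled LB shake-flask culture, induced with 0.3% L-arabinose, DNA abundance read by NGS, three biological replicates, DESeq2 with apeglm shrinkage.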

Sequence | shrunken log2 fold change
RRIRPRPPRLPRPRPRPRSGPRP | 0.0638
RRIRSRPPRLPRPRPRPSHDPRP | -0.308
RRIRNRPPRLPRPRPRPNFPPRP | -0.0305
RRIRDRPPRLPRPRPRPLWDPRP | -0.0822
RRIRKRPPRLPRPRPRPDPEPRP | -0.0797
RRIRTRPPRLPRPRPRPMGMPRP | -0.12
RRIRERPPRLPRPRPRPLMWPRP | -0.101
RRIRLRPPRLPRPRPRPKYGPRP | -0.364
RRIRHRPPRLPRPRPRPLPVPRP | 0.125
RRIRIRPPRLPRPRPRPVLAPRP | -0.0133
RRIRNRPPRLPRPRPRPWSRPRP | 0.14
RRIRLRPPRLPRPRPRPDNWPRP | -0.0493
RRIRCRPPRLPRPRPRPRIYPRP | -0.0107
RRIRARPPRLPRPRPRPCTHPRP | -0.182
RRIRKRPPRLPRPRPRPYRVPRP | -0.0373
RRIRTRPPRLPRPRPRPDKMPRP | -0.392
RRIRDRPPRLPRPRPRPSLFPRP | 0.205
RRIRSRPPRLPRPRPRPMTDPRP | -0.222
RRIRIRPPRLPRPRPRPILYPRP | -0.357
RRIRNRPPRLPRPRPRPRQQPRP | 0.365

Sequence | shrunken log2 fold change
RRIRVRPPRLPRPRPRPHLGPRP | -0.132
RRIRFRPPRLPRPRPRPYWAPRP | -0.328
RRIRRRPPRLPRPRPRPLAMPRP | -0.0111
RRIRGRPPRLPRPRPRPYTHPRP | -0.426
RRIRMRPPRLPRPRPRPEMNPRP | 3.59
RRIRERPPRLPRPRPRPKCAPRP | 0.0581
RRIRMRPPRLPRPRPRPADHPRP | 0.173
RRIRCRPPRLPRPRPRPPTKPRP | 0.108
RRIRLRPPRLPRPRPRPFFQPRP | 0.152
RRIRSRPPRLPRPRPRPYDVPRP | 0.0192
RRIRVRPPRLPRPRPRPLDVPRP | -0.277
RRIRQRPPRLPRPRPRPAELPRP | -0.00135
RRIRRRPPRLPRPRPRPTSPPRP | 0.225
RRIRPRPPRLPRPRPRPHFCPRP | -0.353
RRIRARPPRLPRPRPRPNGPPRP | 0.149
RRIRIRPPRLPRPRPRPHRRPRP | -0.056
RRIRSRPPRLPRPRPRPEPRPRP | 0.586
RRIRWRPPRLPRPRPRPGSNPRP | 0.227
RRIRMRPPRLPRPRPRPKICPRP | -0.155
RRIRPRPPRLPRPRPRPTLIPRP | -0.169

Sequence | shrunken log2 fold change
RRIRMRPPRLPRPRPRPHGYPRP | 0.185
RRIRTRPPRLPRPRPRPPQTPRP | 0.457
RRIRERPPRLPRPRPRPVHGPRP | -0.152
RRIRIRPPRLPRPRPRPMKDPRP | -0.135
RRIRYRPPRLPRPRPRPYEAPRP | -0.336
RRIRVRPPRLPRPRPRPYWFPRP | -0.396
RRIRWRPPRLPRPRPRPPWGPRP | 0.483
RRIRARPPRLPRPRPRPLGNPRP | 0.0331
RRIRDRPPRLPRPRPRPFFGPRP | 1.19
RRIRVRPPRLPRPRPRPMCWPRP | 0.00173
RRIRNRPPRLPRPRPRPWHGPRP | -0.153
RRIRSRPPRLPRPRPRPGFNPRP | -0.038
RRIRCRPPRLPRPRPRPKPIPRP | 0.0598
RRIRHRPPRLPRPRPRPNVHPRP | -0.113
RRIRARPPRLPRPRPRPCDTPRP | 0.255
RRIRKRPPRLPRPRPRPKCPPRP | 0.165
RRIRERPPRLPRPRPRPAPDPRP | 0.26
RRIRCRPPRLPRPRPRPSHHPRP | -0.603
RRIRARPPRLPRPRPRPNAHPRP | 0.437
RRIRKRPPRLPRPRPRPGMWPRP | 0.438
